Data on 3 substances can be found in US20080159996.

Holding throughout (experiment): cell_activity
In series [1] the test system is ZFN 8266-FokI Q486E/I499L (ZFN224 pair member) (synthetic).
The test system of series [2] is ZFN 8267-FokI wt (ZFN215 pair member) (synthetic). The settings on record: pair ZFN215 with 8196z, CD4+ T-cells, MOI 100, Cel-1 assay; 31.2% in PBMCs.
Series [3] has as its system ZFN 8266-FokI wt (ZFN201 pair member) (synthetic). The settings on record: pair ZFN201 with 8196z, PM1 cells, plasmid electroporation.
For series [4], the system named is ZFN 8196z-FokI E490K/I538K (ZFN224 pair member) (synthetic).
The test system of series [5] is ZFN 8196z-FokI wt (ZFN215 and ZFN201 pair member) (synthetic).
Where [6] appears, read: pair ZFN224, CD4 T cells, conditions giving 35.6% CCR5 modification, Surveyor nuclease.

Turning to “GATGAGGATGAC (double strand) [CCR5 r162 half-site]”, the activity (% CCR5 alleles modified) in series [1] (pair ZFN224 with 8196z, CD4+ T-cells, MOI 100, Cel-1, Examples 14 and 17 state 8266 in ZFN224 but Example 1 states 8267) was determined as 14.9; in series [2], 32.3; in series [3] it was 2.4.
In the case of CCR2 off-target site, the activity (% CCR2 alleles modified) in series [1] (setting [6]) and in series [4] (setting [6]) was 4.1 throughout.
Regarding “AAACTGCAAAAG (double strand) [CCR5 168 half-site]”, the activity (% CCR5 alleles modified) is 14.9 in series [4] (pair ZFN224, CD4+ T-cells, MOI 100, Cel-1 assay, 48.4% in Example 4); 2.4 in series [5] (pair ZFN201 with 8266, PM1 cells, plasmid electroporation); 32.3 in series [5] (pair ZFN215 with 8267, CD4+ T-cells, MOI 100, Cel-1 assay, 31.2% in PBMCs).
